The text below walks through data of paper PMC6934807, “Development of hypoallergenic variants of the major horse allergen Equ c 1 for immunotherapy by rational structure based engineering” (Scientific Reports, 2019).

Data set [1] concerns the molecule itself. The data set can be described thus: cell-based or functional assay.
Data set [2] concerns the molecule itself. Put plainly: native MS; native ESI FT-ICR MS at 40 µM protein, 10 mM ammonium acetate pH 6.9; Kd of Triple 3 estimated from monomer and dimer intensities at this single concentration; dimer to monomers.
Data set [3] deals with T1, recombinant Equ c 1 wild type (Equ c 1.0101) (horse).
T1 chain: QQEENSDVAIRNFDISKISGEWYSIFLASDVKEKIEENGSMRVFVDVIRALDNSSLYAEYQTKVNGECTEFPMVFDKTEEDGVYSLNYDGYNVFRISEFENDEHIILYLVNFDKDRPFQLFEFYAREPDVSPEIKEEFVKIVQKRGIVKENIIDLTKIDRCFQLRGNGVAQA
The data set can be described thus: native MS; native ESI FT-ICR MS, dilution series 0.1-4.8 µM (monomer) in 10 mM ammonium acetate, diluted samples kept four days at +4 °C, five parallel spectra per concentration; Kd from monomer and dimer ion intensities; dimer to monomers. To be noted: both partners purified.

In data set [4] the target is T1, recombinant Equ c 1 wild type (Equ c …). Put plainly: SEC; SE-UHPLC, Acquity BEH125 SEC column, PBS (12 mM Na2HPO4, 3 mM NaH2PO4, 150 mM NaCl, pH 7.3), 2 µl of a 40 µM protein solution injected, compared with protein standards. The conditions noted are these: both partners purified.

Where a chain is given by its changes, count along the chain named. Names may count otherwise.

Broadly, the Kd is the free concentration of one partner at which half of the binding sites on the other are occupied at equilibrium, for simple one-to-one binding. For orientation: stoichiometry N means the number of molecules, sites or subunits per partner or assembly.

B1: Equ c 1 Triple 2 (V47K + V110E + F112K) (natural protein)
chain: T1 chain with V47K, V110E, F112K
In the case of B1, in data set [1], the “EC50 of histamine release from stripped basophils passively sensitised with serum A of a horse allergic person” value amounted to 0.11 nM, the “EC50 of histamine release from stripped basophils passively sensitised with serum B of a horse allergic person” value worked out at 0.24 nM, the “EC50 of histamine release from stripped basophils passively sensitised with serum C of a horse allergic person” value came to 0.22 nM and the “EC50 of histamine release from stripped basophils passively sensitised with serum D of a horse allergic person” value came to 0.18 nM. In addition, in data set [1], the “EC50 of histamine release from stripped basophils passively sensitised with serum E of a horse allergic person” value came to 0.84 nM; the “EC50 of histamine release from stripped basophils passively sensitised with serum F (RefLab's positive control serum)” value came to 0.72 nM; the “EC50 of histamine release from stripped basophils, median of the six sera” value was 0.23 nM.

B2: Equ c 1 Triple 3 (E21Y + V110E + F112K) (natural protein)
chain: T1 chain with E21Y, V110E, F112K
As for B2, in data set [1], the “EC50 of histamine release from stripped basophils passively sensitised with serum A of a horse allergic person” value was determined as 0.29 nM, the “EC50 of histamine release from stripped basophils passively sensitised with serum B of a horse allergic person” value turned out to be 0.42 nM, the “EC50 of histamine release from stripped basophils passively sensitised with serum C of a horse allergic person” value was found to be 0.52 nM and the “EC50 of histamine release from stripped basophils passively sensitised with serum D of a horse allergic person” value worked out at 0.26 nM. For the same molecule, in data set [1], the “EC50 of histamine release from stripped basophils passively sensitised with serum E of a horse allergic person” value turned out to be 3.7 nM; the “EC50 of histamine release from stripped basophils passively sensitised with serum F (RefLab's positive control serum)” value amounted to 1.1 nM; the “EC50 of histamine release from stripped basophils, median of the six sera” value came to 0.47 nM. Also, the Kd in data set [2] was about 800000 nM.

B3: recombinant Equ c 1 wild type (Equ c 1.0101) (natural protein)
chain: T1 chain
modifications: extra vector-derived N-terminal Ala left out; disulfide Cys68-Cys161 (mature numbering, precursor = +15); homodimer at micromolar concentration (Kd 15.6 nM) / extra vector-derived N-terminal Ala left
B3: the dissociation constant (Kd) in data set [3] was 15.6 ± 0.8 nM. In data set [4], the “stoichiometry N” value was 2.
